For 1 substance, Kd and stoichiometry N results are on record in publication doi:10.1101/2023.01.07.523072.

In this assay the target is RPN13 pru domain (Arabidopsis thaliana) (UniProt O48726). Kind of assay: ITC.

By Kd is commonly meant the equilibrium constant for the complex coming apart. A low value points to tighter binding. As a reminder, the stoichiometry N is the number of molecules, sites or subunits per partner or assembly.

Sequence of UniProt O48726 (O48726 9-121): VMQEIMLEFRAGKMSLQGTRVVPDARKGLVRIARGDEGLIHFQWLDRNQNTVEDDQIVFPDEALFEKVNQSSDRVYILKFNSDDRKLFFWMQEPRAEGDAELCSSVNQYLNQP

For “TTOP UBL domain (from UniProt F4K1H0 1-879) (domain or fragment)”, the dissociation constant Kd is 29 µM and the stoichiometry N stood at 1.
